Laboratory results as given in article PMC4755738, “Actin filaments target the oligomeric maturation of the dynamin GTPase Drp1 to mitochondrial fission sites” (eLife, 2015).

Legend:
[1] = molecular target: T1, Rabbit skeletal muscle actin (filaments) (rabbit, UniProt P68135 1-377); assay: cell-based or functional assay
[2] = molecular target: T1, Rabbit skeletal muscle actin (filaments); assay: co-sedimentation; high-speed co-sedimentation; Drp1 1.3 uM with pre-polymerized actin filaments 0.25-10 uM, 1 hr at 23 C, 200 ul, ionic strength 75 mM (NaCl); 80,000 rpm 20 min 4 C (TLA-100.1); pellets on SDS-PAGE, Colloidal blue, ImageJ; apparent Kd; conditions: both partners purified

Drp1 GTPase activity (malachite green phosphate release) with 0.5 or 1 uM pre-polymerized actin filaments, against Drp1 alone [1]: ~3.5 fold | Kd [2]: 800 ± 400 nM
B1: Human Drp1 isoform 000 (E. coli-purified) (enzyme)
chain: MEALIPVINKLQDVFNTVGADIIQLPQIVVVGTQSSGKSSVLESLVGRDLLPRGTGIVTRRPLILQLVHVSQEDKRKTTGEENGVEAEEWGKFLHTKNKLYTDFDEIRQEIENETERISGNNKGVSPEPIHLKIFSPNVVNLTLVDLPGMTKVPVGDQPKDIELQIRELILRFISNPNSIILAVTAANTDMATSEALKISREVDPDGRRTLAVITKLDLMDAGTDAMDVLMGRVIPVKLGIIGVVNRSQLDINNKKSVTDSIRDEYAFLQKKYPSLANRNGTKYLARTLNRLLMHHIRDCLPELKTRINVLAAQYQSLLNSYGEPVDDKSATLLQLITKFATEYCNTIEGTAKYIETSELCGGARICYIFHETFGRTLESVDPLGGLNTIDILTAIRNATGPRPALFVPEVSFELLVKRQIKRLEEPSLRCVELVHEEMQRIIQHCSNYSTQELLRFPKLHDAIVEVVTCLLRKRLPVTNEMVHNLVAIELAYINTKHPDFADACGLMNNNIEEQRRNRLARELPSAVSRDKVASGGGGVGDGVQEPTTGNWRGMLKTSKAEELLAEEKSKPIPIMPASPQKGHAVNLLDVPVPVARKLSAREQRDCEVIERLIKSYFLIVRKNIQDSVPKAVMHFLVNHVKDTLQSELVGQLYKSSLLDDLLTESEDMAQRRKEAADMLKALQGASQIIAEIRETHLW
notes: Drp1 (dynamin-related protein 1), human, isoform 000 of Strack et al. 2013; Cloned in pET16b with an N-terminal Strep-tag followed by an HRV3C protease site; eluted from the resin by HRV3C cleavage; Used in high-speed co-sedimentation and GTPase assays; also called dynamin GTPase Drp1; not shown: Strep-tag, N-terminal, cleaved
